In US20250270343A1 (Alector, published 2025):

B1: anti-GPNMB antibody GPN-48 (antibody, human IgG1, V domains shown)
VH: QVQLQQSGPELVKPGASVKLSCRASGYGFSSFWMNWVKQRPGKGLEWIGRIYPGKGDTLYNGKFKDKATLTADESSSTAYMQLSSLTSEDSAVYFCARSIYYYDYWYFDVWDTGTTVTVSS
VL: DIVMTQSHKFMSTSVGDRVNITCKASQDVNSAIAWYQQKPGQSPKLLIYSASYRFIGVPDRFTGSGSGTGFTFTISSVQAEDLAVYYCQQHYTTPLTFGAGTKLELK
notes: chimeric
B2: anti-GPNMB antibody GPN-43 (antibody, human IgG1, V domains shown)
VH: EVQLQQSGPELVKPGASVKISCKASGYTFTDYYMNWVRQSHGKSLEWIGDINPYHGGSTYNQKIKVKATLTVDKSSSTAYMELRSLTSEDSAVYYCARNWPYFDYWGQGTTLTVSS
VL: DIQMTQSPASLSASVGETVTITCRASENIYSFLVWYQQKQGKSPQLLVYNAKTLAEGVPSRFSGSGSGTQFSLKISSLQPEDFGSYYCQHHFGTPPYTFGGGTKLEIK
notes: chimeric
B3: anti-GPNMB antibody GPN-61 (antibody, human IgG1, V domains shown)
VH: DVQLQESGPGLVKPSQTVFLTCTVTGISITTGNYRWSWIRQFPGNKLEWIGYIYYSGTITYNPSLTSRTTITRDTPKNQFFLEMSSLTAEDTATYFCARDLRHWYFDVWGTGTTVTVSS
VL: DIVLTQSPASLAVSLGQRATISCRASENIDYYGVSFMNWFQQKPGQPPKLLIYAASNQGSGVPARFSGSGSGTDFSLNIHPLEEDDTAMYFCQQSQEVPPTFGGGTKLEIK
notes: chimeric
B4: anti-GPNMB antibody GPN-42 (antibody, human IgG1, V domains shown)
VH: DVKLVESGEDLVKPGGSLKLSCAASGFTFSSYAMSWVRQTPEKRLEWVAYISSGGDYIYYADTVKGRFTISRDNARNTLYLQMSSLKSEDTAMYYCTRDRYYDYDVRDYYTMDYWGQGTSVTVSS
VL: DVMMTQTPLSLPVSLGDQASISCRSSQSLVHSNGNTYLHWFLQKPGQSPKLLIFRVSNRFSGVPDRFSGRGSGTDFTLKISRVEAEDLGVYFCSQTTHVPRTFGGGTTLEIK
notes: chimeric

Experiments:
[1] = target: T1, mouse GPNMB endogenously expressed on B16F10 cells (mouse, UniProt Q99P91 23-574); assay: FACS titration on B16F10 cells (endogenous mouse GPNMB) at 4 C; fluorescent secondary antibody; MFI-APC against soluble antibody (nM)
T1 construct: whole, on cells; also called moGPNMB
T1 sequence (looked up): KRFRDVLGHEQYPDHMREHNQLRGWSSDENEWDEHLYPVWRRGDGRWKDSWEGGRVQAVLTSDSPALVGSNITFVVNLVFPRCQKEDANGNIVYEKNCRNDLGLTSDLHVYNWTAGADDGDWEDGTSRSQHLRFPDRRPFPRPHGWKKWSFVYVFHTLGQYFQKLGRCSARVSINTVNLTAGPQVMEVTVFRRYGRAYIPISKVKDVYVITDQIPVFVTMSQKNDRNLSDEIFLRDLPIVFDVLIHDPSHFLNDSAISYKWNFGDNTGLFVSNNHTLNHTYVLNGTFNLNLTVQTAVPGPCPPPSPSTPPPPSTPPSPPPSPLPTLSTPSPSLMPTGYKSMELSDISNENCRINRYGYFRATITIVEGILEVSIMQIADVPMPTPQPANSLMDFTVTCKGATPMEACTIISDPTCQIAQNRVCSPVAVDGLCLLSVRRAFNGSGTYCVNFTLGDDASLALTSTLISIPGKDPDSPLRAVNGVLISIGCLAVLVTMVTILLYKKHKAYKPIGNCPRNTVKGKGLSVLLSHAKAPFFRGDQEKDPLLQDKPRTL
Experimental: Cell-based binding measurements were also performed to measure the apparent affinities of anti-GPNMB antibodies of the present disclosure to cell-surface expressed GPNMB. Serial dilutions of the monoclonal anti-GPNMB antibodies were added to 100,000 Freestyle293-huGPNMB+ or B16F10 cells and allowed to achieve binding equilibrium at 4° C. After addition of fluorescently labeled secondary antibody and brief washing steps, MFI values as a function of titrated antibody concentration was recorded via FACS analysis. Curves were fit using nonlinear regression analysis with Graphpad Prism 6 software.

[2] = target: T1, mouse GPNMB endogenously expressed on …; assay: FACS, B16F10 cells; single-point FACS staining of B16F10 cells; weak signal, 1.7-fold over background
[3] = target: T2, full-length untagged human GPNMB expressed on cells (human, UniProt Q14956 23-572); assay: FACS, FS293-huGPNMB+ cells; single-point FACS staining of Freestyle293-huGPNMB+ cells; weak signal, 1.5-fold over background
T2 construct: also used here for GPNMB on human monocyte-derived macrophages in the functional assays; also called huGPNMB; Freestyle293-huGPNMB+
T2 sequence: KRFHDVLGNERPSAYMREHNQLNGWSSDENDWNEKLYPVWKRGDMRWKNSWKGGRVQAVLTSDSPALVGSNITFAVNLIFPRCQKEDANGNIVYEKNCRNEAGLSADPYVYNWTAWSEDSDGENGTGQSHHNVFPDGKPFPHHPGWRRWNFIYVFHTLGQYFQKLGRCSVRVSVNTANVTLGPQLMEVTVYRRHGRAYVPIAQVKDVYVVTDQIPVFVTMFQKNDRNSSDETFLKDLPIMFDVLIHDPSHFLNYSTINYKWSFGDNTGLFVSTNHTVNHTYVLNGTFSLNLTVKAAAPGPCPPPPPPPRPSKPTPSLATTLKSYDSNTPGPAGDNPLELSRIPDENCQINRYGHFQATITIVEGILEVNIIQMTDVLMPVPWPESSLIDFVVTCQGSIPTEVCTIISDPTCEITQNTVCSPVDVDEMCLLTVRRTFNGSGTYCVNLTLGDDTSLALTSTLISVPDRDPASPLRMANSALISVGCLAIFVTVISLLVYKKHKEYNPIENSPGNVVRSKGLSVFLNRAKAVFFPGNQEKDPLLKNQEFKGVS

[4] = target: T2, full-length untagged human GPNMB …; assay: FACS, FS293-huGPNMB+ cells; single-point FACS staining of Freestyle293-huGPNMB+ cells; weak signal, 2.0-fold over background

Row | EC50 (read off the curve) [1] [nM] | MFI fold over background [2] [fold] | MFI fold over background [3] [fold] | MFI fold over background [4] [fold] | Binder
1 | ~1 | 1.7 |  |  | B1
2 |  |  | 1.5 |  | B2
3 | ~0.1 | 1.7 |  |  | B3
4 |  |  |  | 2 | B4
